Source: article PMC3917506

Biological target: mRFP1-Rac1 (wild type) (human), P63000
Assay: FRET or BRET
Conditions: remark: other sources report otherwise

B1: Teal-N-WASP, O00401 1-505 (natural protein)
chain: MSSVQQQPPPPRRVTNVGSLLLTPQENESLFTFLGKKCVTMSSAVVQLYAADRNCMWSKKCSGVACLVKDNPQRSYFLRIFDIKDGKLLWEQELYNNFVYNSPRGYFHTFAGDTCQVALNFANEEEAKKFRKAVTDLLGRRQRKSEKRRDPPNGPNLPMATVDIKNPEITTNRFYGPQVNNISHTKEKKKGKAKKKRLTKADIGTPSNFQHIGHVGWDPNTGFDLNNLDPELKNLFDMCGISEAQLKDRETSKVIYDFIEKTGGVEAVKNELRRQAPPPPPPSRGGPPPPPPPPHNSGPPPPPARGRGAPPPPPSRAPTAAPPPPPPSRPSVAVPPPPPNRMYPPPPPALPSSAPSGPPPPPPSVLGVGPVAPPPPPPPPPPPGPPPPPGLPSDGDHQVPTTAGNKAALLDQIREGAQLKKVEQNSRPVSCSGRDALLDQIRQGIQLKSVADGQESTPPTPAPTSGIVGALMEVMQKRSKAIHSSDEDEDEDDEEDFEDDDEWED
average FRET efficiency E%: 14%
